± gives the standard deviation of the averaged measurements.
System: ATP
Assay: switch fluorescence ratio, 500 uM ATP over buffer (Cy3 cluster intensity, sum of 5 cycles each) (fold (ratio)); higher = stronger signal-on switching upon ATP binding; sequences stand for … in TCGTCGGCAGCGTCAGATGTGTATAAGAGACAGTTTTTTTTTTTTTTTTTTTTTTTTT…TC
Details: aptamer strand: ATP DNA aptamer (quencher-CACCTGGGGGAGTATTGCGGAGGAAGG + anchor), 100 nM annealed; ATP concentration: 500 uM
Procedure, shortened: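 Clusters carrying Cy3-labelled switching strands on a modified Illumina MiSeq flow-cell were annealed to 100 nM quencher-labelled ATP aptamer and imaged in selection buffer. They were imaged again after 15 min with 500 uM ATP at 22 °C, over five buffer/ATP cycles with NaOH stripping and re-annealing in between. For each cluster, the fluorescence ratio is the summed Cy3 intensity of the target cycles divided by that of the buffer cycles, averaged per switch-domain sequence. Clusters outside 100-1000 RFU were left out.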
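Also: ATP exposure 15 min at 22 °C before imaging.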

Row | Sequence | switch fluorescence ratio
1 | CATGGATGGC | 1.06 ± 0.03
2 | ACTATTTTTC | 1.016 ± 0.0035
3 | TCGGAATATT | 1.09 ± 0.062
4 | TTGGGGACCC | 1.03 ± 0.035
5 | ATAAAGATAG | 1.0006 ± 7.5e-05
6 | ATGGGGGAAT | 1.0184 ± 0.00041
7 | TCATATATCT | 0.9937 ± 0.0058
8 | GAACTGATGT | 1 ± 0.018
9 | AGTGATGTGT | 1 ± 0.017
10 | GTTTATTTCG | 0.987 ± 0.059
11 | TGTGATGGGT | 0.996 ± 0.04
12 | ACAGAAGGGT | 0.972 ± 0.098
13 | TGGCGGTTGC | 0.955 ± 0.013
14 | CGAAGGTTGC | 1.01 ± 0.04
15 | ACAGGTTAAT | 1.02 ± 0.02
16 | TCTAAATAGC | 1.05 ± 0.038
17 | TAAGCTGACG | 0.9973 ± 0.0098
18 | CGGCGGCACC | 1.0893 ± 0.00071
19 | TCCTGTGAAC | 1.04 ± 0.046
20 | AGAGATTACG | 1.02 ± 0.034
21 | ACATCGGCTT | 0.998 ± 0.015
22 | GTTTTAGAGT | 0.989 ± 0.02
23 | CCTGGGGCTG | 1.12 ± 0.14
24 | TGCGGATGGT | 0.98 ± 0.016
25 | TTAGCAGCGT | 1 ± 0.019

Row | Sequence | switch fluorescence ratio
26 | CTTATAGGTG | 1.14 ± 0.059
27 | TACAAACGGT | 1.17 ± 0.25
28 | ATAGGATCAC | 1.02 ± 0.028
29 | TGTTTTAAGT | 0.999 ± 0.036
30 | TTTGGGACTT | 1.01 ± 0.035
31 | TGATGCATAT | 1.1411 ± 0.0011
32 | AGTTGAGCTT | 0.987 ± 0.013
33 | GGGGCAAAAA | 1.08 ± 0.12
34 | CTGAAAGGGC | 1.03 ± 0.066
35 | ACTAGGGCAG | 1.035 ± 0.005
36 | TTGTAGCGGT | 1.05 ± 0.034
37 | CGGCGGGTGG | 1.02 ± 0.041
38 | GGGTGTTGTC | 1.006 ± 0.01
39 | ACGAAATGAC | 1.68 ± 0.037
40 | GTTGGTAGCC | 0.978 ± 0.022
41 | GTTATGGGTG | 0.983 ± 0.029
42 | CTTGGGGCTA | 1.03 ± 0.088
43 | TACGGGTGTG | 1.016 ± 0.003
44 | ATTTAGGCGT | 1 ± 0.039
45 | AGGTAGGGGG | 0.993 ± 0.019
46 | GGCTGAGGCG | 0.965 ± 0.024
47 | CGAATATGAT | 1.02 ± 0.058
48 | TACTTGGACT | 1.06 ± 0.018
49 | TTTTGTAGCA | 1.1 ± 0.03
50 | TAGAGAATCG | 1.065 ± 0.0062

Row | Sequence | switch fluorescence ratio
51 | TGGCCTGGGA | 1.026 ± 0.0056
52 | CAGACCGGTT | 0.996 ± 0.035
53 | TTTAAGGGAT | 1 ± 0.041
54 | ATCGTACGGC | 1.01 ± 0.026
55 | AGGGTGTAGA | 1.016 ± 0.0045
56 | CCGGTGCGGC | 1.48 ± 0.23
57 | GGTTGAAGTT | 0.986 ± 0.0077
58 | TTTGTCAGTA | 0.989 ± 0.018
59 | TTTTCATCAT | 1.01 ± 0.031
60 | TGATTAGCAA | 1.26 ± 0.3
61 | ATGGAGTTTG | 0.9901 ± 0.0057
62 | GTGATCTGGG | 0.9689 ± 0.0053
63 | CATTATAGGC | 1.004 ± 0.002
64 | ATGTGGGGCC | 0.995 ± 0.042
65 | TTGTTGGGTT | 1.02 ± 0.061
66 | AGCTTAGGTC | 1.03 ± 0.029
67 | TAATTTCTGT | 1.01 ± 0.024
68 | ATAGAAGGGG | 1.08 ± 0.14
69 | GGGGCGGTTT | 1.01 ± 0.046
70 | CTTAGATTTT | 0.988 ± 0.025
71 | AAACACAGGG | 1.07 ± 0.063
72 | GGGGTGAAAT | 1 ± 0.018
73 | CATTTTCTAG | 1.03 ± 0.044
74 | TGTTGCTCCA | 1.05 ± 0.082
75 | TATTGTATTC | 1 ± 0.013

Row | Sequence | switch fluorescence ratio
76 | AAAGGGGAGG | 1.01 ± 0.033
77 | CGAGCTCCAT | 1.015 ± 0.0054
78 | TTTGTGGAGT | 1 ± 0.021
79 | GGGGTGCTTG | 0.988 ± 0.026
80 | CATCGCATCT | 1.79 ± 0.056
81 | GATGGGACAA | 1.008 ± 0.0027
82 | TCGGTTTAAC | 1.04 ± 0.038
83 | TGGGGTAAAT | 1.01 ± 0.017
84 | TTCGGGAGGG | 0.973 ± 0.029
85 | TATGATGGAA | 0.966 ± 0.024
86 | TGGTAAAAGG | 0.991 ± 0.038
87 | TCTATCGTTA | 1.04 ± 0.03
88 | AAGATTTGAC | 1.003 ± 0.0085
89 | GAAAAAGGCA | 0.974 ± 0.033
90 | GGGGTTGACG | 0.964 ± 0.059
91 | TTACCTAGAG | 1.04 ± 0.038
92 | TGCTTGGGGA | 0.983 ± 0.082
93 | CTTGGGGCTC | 0.9457 ± 0.0082
94 | CTGAATGGGG | 0.971 ± 0.01
95 | GATGGCGTGG | 0.964 ± 0.038
96 | TTATTGGTA | 1.04 ± 0.016
97 | TTTAATATAG | 1 ± 0.044
98 | AAGAGTATTG | 1 ± 0.02
99 | TAATTTCGGG | 0.986 ± 0.013
100 | GGTTTTGTAT | 0.993 ± 0.024

From the supplement of paper PMC10126150
